Experimental data taken from patent US20220242973A1 (Molecular Partners, published 2022).

Tests used:
[1] = molecular target: T1, Human FAP expressed on the cell surface (WI38, CHO-FAP1.9, U87MG cells) (human, UniProt Q12884 1-760); assay: FACS on U87MG cells (FAP on the cell surface), His-tag detected with Penta-His AF647 conjugate, median fluorescence intensity
T1 construct: whole, on cells; Endogenous on WI38 and U87MG cells; from a human FAP cDNA (OriGene) in CHO-FAP1.9 cells; also called hFAP; FAP+ cells
T1 sequence (looked up): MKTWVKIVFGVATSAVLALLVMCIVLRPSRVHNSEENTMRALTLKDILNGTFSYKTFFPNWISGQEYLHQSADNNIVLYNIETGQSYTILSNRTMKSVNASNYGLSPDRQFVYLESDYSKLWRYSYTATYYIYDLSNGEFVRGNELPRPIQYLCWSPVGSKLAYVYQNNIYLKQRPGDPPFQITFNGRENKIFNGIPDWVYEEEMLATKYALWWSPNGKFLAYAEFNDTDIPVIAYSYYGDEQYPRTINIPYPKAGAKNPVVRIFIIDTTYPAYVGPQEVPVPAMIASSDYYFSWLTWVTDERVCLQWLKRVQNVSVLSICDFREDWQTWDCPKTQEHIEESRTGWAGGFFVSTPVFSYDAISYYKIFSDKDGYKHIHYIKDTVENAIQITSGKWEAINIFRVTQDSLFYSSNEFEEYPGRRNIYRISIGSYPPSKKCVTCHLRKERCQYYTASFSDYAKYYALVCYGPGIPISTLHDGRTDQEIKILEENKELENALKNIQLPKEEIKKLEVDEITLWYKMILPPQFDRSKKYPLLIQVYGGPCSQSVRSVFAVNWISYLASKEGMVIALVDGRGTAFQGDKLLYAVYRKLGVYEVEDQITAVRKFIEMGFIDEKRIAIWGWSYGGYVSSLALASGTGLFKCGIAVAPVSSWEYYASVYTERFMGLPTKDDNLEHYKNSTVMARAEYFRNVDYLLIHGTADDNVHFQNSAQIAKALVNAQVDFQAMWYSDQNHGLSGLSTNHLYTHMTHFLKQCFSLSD
Procedure: (§1) In order to determine whether the fusion of a biologically active molecule to a FAP-specific ankyrin repeat domain affects the ability of the molecule to specifically recognize and bind to FAP expressed on the surface of cells, the binding of selected ankyrin repeat fusion proteins to FAP-expressing cells was tested. U87 MG cells and WI38 cells are known to express FAP on the cell surface and they were chosen as representative cells for these experiments. FAP expression on the U87 MG and WI38 cells was confirmed by FACS analysis (data not shown).
(§2) Using multi-well plates, 40,000 cells (either U87MG or WI38) were added per well in 50 μl of PBS. 50 μl of appropriate dilutions (2× dilution steps) of ankyrin repeat fusion protein (DARPin® protein #40 or DARPin® protein #41) was then added to the cells and incubated for 30 minutes on ice. After the ankyrin repeat fusion protein-binding reaction, cells were washed twice with PBS. Direct immunofluorescent detection of the His-tagged ankyrin repeat fusion proteins using Penta-His AF647 conjugate (QIAgen) and determination of live cells using LIVE/DEAD™ Fixable Green Dead Cell Stain Kit (ThermoFisher) were then performed together in one step. […] Acquisition and FACS analysis, including the determination of median fluorescence intensity (MFI), were done within 5 days after staining using an AttuneNxT instrument. […]

[2] = molecular target: T1, Human FAP expressed on the cell surface …; assay: FACS on WI38 cells (FAP on the cell surface), His-tag detected with Penta-His AF647 conjugate, median fluorescence intensity
Procedure: as §1, §2

EC50 (read off the curve) [1]: ~2 nM
EC50 (read off the curve) [2]: ~2 nM
B1: DARPin® protein #40 (designed binder)
chain: MRGSHHHHHHGSDLGKKLLEAARAGQDDEVRELLKAGADVNAKDYFSHTPLHLAARNGHLKIVEVLLKAGADVNAKDFAGKTPLHLAANEGHLEIVEVLLKAGADVNAQDIFGKTPADIAADAGHEDIAEVLQKAAGSPTPTPTTPTPTPTTPTPTPTGSDLGKKLLEAARAGQDDEVRILLAAGADVNAKDVLGWTPLHLAAFEGHLEIVEVLLKAGADVNAKDKKGWTPLQLAARTGHLEIVEVLLKAGADVNAKDHIGATPLHLAAWQGHPEIVEVLLKAGADVNAQDKSGKTPADLAADAGHEDIAEVLQKAA
notes: Fusion of a serum albumin-specific and a FAP-specific ankyrin repeat domain
